What was measured:
mouse PSMA = mouse PSMA (mouse, UniProt O35409 45-752, limits assumed); experiment: ELISA, Biacore and/or FACS (not said which for mouse)
human PSMA = molecular target: T1, human PSMA (human, UniProt Q04609 44-750); experiment: FACS on hPSMA (FIG. 2)
T1 construct: also called hPSMA; Human PSMA dimer (DT1596)
T1 sequence (Q04609 44-750 limits assumed): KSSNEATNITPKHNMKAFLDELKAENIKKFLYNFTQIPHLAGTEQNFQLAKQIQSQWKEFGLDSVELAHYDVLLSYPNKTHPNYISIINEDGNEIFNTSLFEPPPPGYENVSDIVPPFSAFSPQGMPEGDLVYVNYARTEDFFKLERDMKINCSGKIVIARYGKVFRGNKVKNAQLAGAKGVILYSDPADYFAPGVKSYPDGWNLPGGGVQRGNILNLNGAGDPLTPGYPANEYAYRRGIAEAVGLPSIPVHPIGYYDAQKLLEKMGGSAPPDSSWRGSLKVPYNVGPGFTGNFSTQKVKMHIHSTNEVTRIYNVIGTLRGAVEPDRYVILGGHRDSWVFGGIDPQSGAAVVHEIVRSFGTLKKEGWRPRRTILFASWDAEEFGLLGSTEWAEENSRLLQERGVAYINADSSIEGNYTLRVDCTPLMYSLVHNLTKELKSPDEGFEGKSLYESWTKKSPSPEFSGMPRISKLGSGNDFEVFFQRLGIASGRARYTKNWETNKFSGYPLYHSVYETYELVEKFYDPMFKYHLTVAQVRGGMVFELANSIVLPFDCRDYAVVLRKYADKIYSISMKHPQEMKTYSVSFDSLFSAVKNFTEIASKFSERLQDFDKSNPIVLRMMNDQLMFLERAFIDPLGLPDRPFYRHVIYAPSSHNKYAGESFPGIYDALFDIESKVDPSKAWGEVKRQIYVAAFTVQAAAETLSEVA

Chain of mouse PSMA (O35409 45-752 limits assumed): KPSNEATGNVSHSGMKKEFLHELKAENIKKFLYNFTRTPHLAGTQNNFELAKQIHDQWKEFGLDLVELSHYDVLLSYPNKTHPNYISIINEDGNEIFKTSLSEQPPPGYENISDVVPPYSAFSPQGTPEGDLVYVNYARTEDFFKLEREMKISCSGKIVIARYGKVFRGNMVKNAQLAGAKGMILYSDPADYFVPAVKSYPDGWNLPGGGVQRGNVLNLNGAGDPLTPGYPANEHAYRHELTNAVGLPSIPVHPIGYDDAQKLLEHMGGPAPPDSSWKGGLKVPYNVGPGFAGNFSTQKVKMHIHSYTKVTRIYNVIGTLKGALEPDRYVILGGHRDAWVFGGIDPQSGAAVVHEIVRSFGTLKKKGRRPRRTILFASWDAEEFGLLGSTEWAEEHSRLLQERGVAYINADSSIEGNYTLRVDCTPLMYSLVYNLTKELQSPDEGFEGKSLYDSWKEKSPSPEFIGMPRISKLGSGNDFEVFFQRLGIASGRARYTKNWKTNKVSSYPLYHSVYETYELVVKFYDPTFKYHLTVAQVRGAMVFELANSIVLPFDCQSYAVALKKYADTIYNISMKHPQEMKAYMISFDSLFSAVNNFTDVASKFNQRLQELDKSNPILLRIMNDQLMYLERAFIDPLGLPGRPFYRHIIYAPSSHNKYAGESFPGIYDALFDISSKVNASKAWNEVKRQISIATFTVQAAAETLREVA

| Binder | binding result (mouse PSMA) | binding result (human PSMA) |
| --- | --- | --- |
| cHv75-2a11.G1(L328C)k (antibody, human IgG1, kappa, V domains shown, also called [Ag]AB-4; cHv75-2a11.G1(1,328C)k) VH: QVQLVESGGGVVQPGRSLRLSCAASGFTFSSYDMHWVRQAPGKGLEWVAVIWYDGSNKYYADSLKGRFTISRDNSKNTLYLQMNSLRAEDTAVYYCARVIAARTFYYYGMDVWGQGTTVTVSS VL: not shown | no binding | binds |
| cHv75-2a7.G1(C99Y;L328C)k (antibody, V domains shown, also called [Ag]AB-5) VH: EVQLVESGGGLVQPGGSLRLSCAASGITFSNYWMSWVRQAPGKGLEWVANIKKDGSEKFYVDSVKGRFTISRDNAKNSLYLQINSLRAEDTAMYYCAREIQLYLQHWGQGTLVTVSS VL: DIQMTQSPSSVSASVGGRVTITCRASQGISNWLAWYQQKPGKAPKLLIYAASSLQSGVPSRFSGSGSGTDFTLTISNLQPEDFASYYCQQANSFPLTFGGGTKVEIKR | no binding | binds |
